Experimental data reported in PMC9444907.
Like-named read-outs stand apart in the source and are kept apart here.

Key:
[1] = target: p107ΔL pocket domain (residues 389-972, Δ600-779, Δ888-923) (human); experiment: ITC
[2] = target: human Rb pocket domain lacking the single internal loop (residues 380-787; Δ582-642) (human) (UniProt P06400); experiment: ITC
[3] = target: Rb pocket domain (Homo sapiens) (UniProt P06400); settings: cited from earlier work
[4] = target: Rb pocket domain (Homo sapiens) (UniProt P06400); settings: cited from earlier work; remark: listed apart in the source
[5] = target: p107 pocket domain M865V (human); experiment: ITC
[6] = target: p107 pocket domain V939M (human); experiment: ITC

Row | Substance | Kd [1] [µM] | Kd [2] [µM] | also measured
1 | ARID4A peptide E955R | 2.3 |  | 
2 | EID1 peptide E176R/E177R | 14 | 9 | 
3 | EID1 peptide G179Y/D181Y | 0.25 | 0.17 | 
4 | HDAC1 triple (3X) mutant peptide R413D/A415Y/E417Y | 0.105 |  | 
5 | HPV16 E7 peptide (from UniProt P03129) |  |  | Kd [3]: 0.005 µM
6 | PRDM2 IxCxE peptide (from UniProt Q13029) |  |  | Kd [4]: 0.64 µM
7 | human ARID4A LxCxE motif peptide | 1.6 | 0.14 | Kd [5]: 0.12 µM; Kd [6]: 0.33 µM
8 | human EID1 LxCxE motif peptide | 7 | 6 | 
9 | human HDAC1 LxCxE motif peptide | > 10 |  | 
